One molecule from PMC7335050, “Characterization of an alternative BAK-binding site for BH3 peptides” (Nature Communications, 2020) can be followed below.

The test addresses T1, BAKΔTM (human, UniProt Q16611 1-186).
T1 construct: BAK without the transmembrane segment, human, residues 1-186 of GenBank BC004431, in pET29b(+); Named His6-BAKΔTM in the liposome and cytochrome c assays; no tag removal is described; also called His6-BAKΔTM; WT BAKΔTM; source: E. coli BL21, purified (Ni2+-NTA-agarose, Superdex S200)
T1 sequence (looked up): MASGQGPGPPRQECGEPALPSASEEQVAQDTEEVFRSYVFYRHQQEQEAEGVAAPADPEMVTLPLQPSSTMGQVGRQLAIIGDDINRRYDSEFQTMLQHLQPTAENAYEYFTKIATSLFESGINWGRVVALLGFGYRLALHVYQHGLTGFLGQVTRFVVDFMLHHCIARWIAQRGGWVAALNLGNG
Briefly: SPR; BAKΔTM or mutants immobilised on a CM5 chip (Biacore T200; about 4000 RU in the mutant comparisons), BH3 peptides injected at 30 µl per min for 1 min, 25 °C, 10 mM HEPES pH 7.4, 150 mM NaCl, 0.05 mM EDTA, 0.005% polysorbate 20; steady-state analysis, approximate constants. Conditions: both partners purified. Background: In SPR one partner is held on a chip, and binding of the other changes the refractive index at the surface.

Bounds are passed on as bounds.

Usually Kd stands for the concentration at which binding is half-saturated. Low values mean higher affinity, high ones lower affinity. HQAEVQIARKLQCIADQFHRLHVQQH [BMF BH3 peptide] came in with a Kd below 1000 nM.
